From EP1740204B1 come the findings set out here.

“And” between values parts separate entries of the source, which are not always exact repeats. Equal values may be shown once.

Experiment [1] addresses MPR 300 affinity matrix (Man6P-receptor affinity matrix). The experiment is described as follows: overnight incubation with MPR 300 affinity matrix; activity in unbound, glucose 6-phosphate and mannose 6-phosphate eluted fractions.
For experiment [2] the target is unchanged. The experiment in a line: MPR 300 affinity column.
For experiment [3] the target is unchanged. The experiment in a line: MPR 300 affinity matrix binding of enzyme batches.

Take “recombinant human lysosomal alpha-mannosidase (LAMAN) expressed in CHO cells (enzyme)”: the percent of LAMAN bound to the Man6P-receptor affinity matrix in a Man6P-dependent manner in experiment [1] came out at 4.2%. Further, the percent bound to the MRP 300 column in experiment [2] is less than 40%. Moreover, in experiment [3], the % phosphorylation (fraction of enzyme binding the Man6P-receptor affinity matrix) was 40% and 30% and 42%; the percent of the amount of enzyme binding to the affinity matrix turned out to be 40%.

“recombinant mouse LAMAN with C-terminal polyhistidine tail, secreted from mannose 6-phosphate receptor deficient mouse embryonic fibroblasts (from UniProt O09159 50-1013) (enzyme)” had a percent of LAMAN activity bound to the Man6P-receptor affinity matrix in experiment [1] of 73.6%.

In turn, “bovine LAMAN purified from kidney (from UniProt Q29451 51-999) (enzyme)” registered a percent of LAMAN activity bound to the Man6P-receptor affinity matrix in a Man6P-dependent manner in experiment [1] of 6.4%.
